Here are results for seven molecules from paper PMC2665062 (The Journal of Biological Chemistry, 2009).

First the molecules themselves.
B1: Plasmodium falciparum nucleosome assembly protein PfNapL, wild type (natural protein, UniProt Q8I608 1-347, looked up)
chain: MAANEGNQPIPPEEEKEISSLLESIKIDDDKMTDLTEEQKETLKKLKLYQKEYYDYESKFEYELFLLRQKYHDLYGPIYDKRREALVGNGEAKIGTPNLPEFWLRALRNNNTVSHVIEDHDEEILVYLNDIRCDYIKKNKEKKEGFILSFYFATNPFFSNSVLTKTYHMKCVDCDNEPVLLHTEATVIDWYDNKNILKKNVVKKQHNKNSREVKTVQQTVNRDSFFHFFTSHKVPNSNVIKQLSKHEVAQLEMIIEGDYEVALTIKERIIPYAVDYYLGIIIESESNSIVSDVDSSYSSSENNSNYNSYESNNSAYNDENSNVDTNEYDDNEEEEEGAKSNEDPLTS
B2: PfNapL K266A (natural protein)
chain: B1 chain with K266A
B3: PfNapL H227A (natural protein)
chain: B1 chain with H227A
B4: PfNapL T230A (natural protein)
chain: B1 chain with T230A
B5: PfNapL D192A (natural protein)
chain: B1 chain with D192A
B6: PfNapL Y259A (natural protein)
chain: B1 chain with Y259A
B7: PfNapL E260A (natural protein)
chain: B1 chain with E260A

Residue numbers refer to the chain shown, from its start. Numbers in names are those of the source.

The first data set deals with the molecule itself. As to the kind of experiment: crystal structure.
Take B1: the binding result was “binds”.

The target in the next data set is histone H4 (calf thymus) (calf, UniProt P62803 1-103). As to the kind of experiment: ELISA.
Consider B1, for which the binding result was “binds”.

Turning to B2, the binding result is listed as “binds”.

As for B3, the binding result is recorded as “binds”.

For B4, the binding result was “binds”.

For B5, the binding result was “binds”.

Turning to B6, the binding result is recorded as “binds”.

Turning to B7, the binding result was “binds”.
